Measurements taken from patent EP1722229B1.

Tests used:
[1] = target: protein C (PC) (UniProt P04070); assay: cell-based or functional assay
[2] = target: protein C (PC) (UniProt P04070); assay: derived from the shift of the Km of PC activation by thrombin on EA.hy926 endothelial cells with 2 µM rhsEPCR

Chain of protein C (PC) (P04070 43-461): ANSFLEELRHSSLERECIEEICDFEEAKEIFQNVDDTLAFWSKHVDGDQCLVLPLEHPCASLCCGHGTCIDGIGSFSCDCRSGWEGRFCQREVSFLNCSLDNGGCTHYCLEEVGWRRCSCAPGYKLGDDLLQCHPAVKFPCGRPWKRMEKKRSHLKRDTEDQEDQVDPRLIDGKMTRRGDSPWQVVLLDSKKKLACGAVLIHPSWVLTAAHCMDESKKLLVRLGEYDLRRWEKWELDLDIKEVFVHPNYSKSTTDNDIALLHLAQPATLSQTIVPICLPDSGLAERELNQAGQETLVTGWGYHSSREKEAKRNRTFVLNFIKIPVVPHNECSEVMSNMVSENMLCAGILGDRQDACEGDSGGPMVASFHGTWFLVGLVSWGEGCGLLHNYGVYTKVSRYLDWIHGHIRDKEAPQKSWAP

Km of PC activation by thrombin on the surface of endothelial cells in the presence of rhsEPCR 2 µM [1]: 1 µM
Ki [2]: 70 nM
Substance: recombinant human soluble EPCR (rhsEPCR) (receptor)
